Data as given in patent US10441663B2, “Methods for treating cancer” (Bicycle Therapeutics Limited, priority 2016, dated 2019).
*1 amine or outer side, *2 acyl side, *3 side chain or, on linkers, in order; H or OH if unused. Where a SMILES comes first, the peptide text is derived from it. Bridges are numbered along the chain shown (N, C = ends). [ ]: non-standard residue; d: D form. The star is where a group is joined. X1 = COc1cc2cc(c1Cl)N(C)C(=O)C[C@H](OC(=O)[C@H](C)N(C)C(=O)CCSSC(C)CCC(=O)*)[C@]1(C)O[C@H]1[C@H](C)[C@@H]1C[C@@](O)(NC(=O)O1)[C@H](OC)/C=C/C=C(\C)C2; 1Nal = N[C@@H](Cc1cccc2ccccc12)C(=O)O; TBMB = c1c(C[*:1])cc(C[*:3])cc1C[*:2]; Tle = CC(C)(C)[C@H](N)C(=O)O; βAla = NCCC(=O)O; Sar = CNCC(=O)O

System: EBC-1 xenograft
Test: Efficacy of BT1718 in EBC-1 xenograft model (Example 1)
Type: in vivo, Mus Musculus
Set-up: key to Best response at 10 mg/kg: CR complete response; PR partial response
Settings: for Tumor Size (mm^3): Mean ± SEM
Description: The objective of this study was to evaluate the anti-tumor efficacy of BT1718 in EBC-1 xenograft model in female BALB/c nude mice.
The EBC-1 tumor cells were maintained in vitro as a monolayer culture in EMEM medium supplemented with 10% heat inactivated fetal bovine serum at 37° C. in an atmosphere of 5% CO2 in air. The tumor cells will be routinely subcultured twice weekly by trypsin-EDTA treatment. The cells growing in an exponential growth phase will be harvested and counted for tumor inoculation.
Each mouse was inoculated subcutaneously at the right flank with EBC-1 tumor cells (10×10^6) in 0.2 ml of PBS for tumor development. The animals were randomized and treatment was started when the average tumor volume reaches approximately 165 mm^3 for the efficacy study.
All the procedures related to animal handling, care and the treatment in the study were performed according to the guidelines of the Association for Assessment and Accreditation of Laboratory Animal Care (AAALAC). At the time of routine monitoring, the animals were daily checked for any effects of tumor growth and treatments on normal behavior such as mobility, food and water consumption (by looking only), body weight gain/loss (body weights were measured every day), eye/hair matting and any other abnormal effect as stated in the protocol. Death and observed clinical signs were recorded on the basis of the numbers of animals within each subset.
The major endpoint was to see if the tumor growth could be delayed or mice could be cured. Tumor size was measured three times weekly in two dimensions using a caliper, and the volume was expressed in mm^3 using the formula: V=0.5 a×b^2 where a and b are the long and short diameters of the tumor, respectively. The tumor size was then used for calculations of T/C value. The T/C value (in percent) is an indication of antitumor effectiveness; T and C are the mean volumes of the treated and control groups, respectively, on a given day.
TGI was calculated for each group using the formula: TGI (%)=[1−(Ti−T0)/(Vi−V0)]×100; Ti is the average tumor volume of a treatment group on a given day, T0 is the average tumor volume of the treatment group on the day of treatment start, Vi is the average tumor volume of the vehicle control group on the same day with Ti, and V0 is the average tumor volume of the vehicle group on the day of treatment start.
Summary statistics, including mean and the standard error of the mean (SEM), are provided for the tumor volume of each group at each time point.
Statistical analysis of difference in tumor volume among the groups was conducted on the data obtained at the best therapeutic time point after the final dose.
A one-way ANOVA was performed to compare tumor volume among groups, and when a significant F-statistics (a ratio of treatment variance to the error variance) was obtained, comparisons between groups were carried out with Games-Howell test. All data were analyzed using Prism. P<0.05 was considered to be statistically significant.

## COc1cc2cc(c1Cl)N(C)C(=O)C[C@H](OC(=O)[C@H](C)N(C)C(=O)CCSSC(C)CCC(=O)NCCC(=O)N(C)CC(=O)N(C)CC(=O)N(C)CC(=O)N(C)CC(=O)N(C)CC(=O)N(C)CC(=O)N(C)CC(=O)N(C)CC(=O)N(C)CC(=O)N(C)CC(=O)N[C@@H](C)C(=O)N[C@H]1CSCc3cc4cc(c3)CSC[C@H](NC(=O)[C@@H](C)NC(=O)[C@H](Cc3cccc5ccccc35)NC(=O)[C@H](CCC(=O)O)NC(=O)[C@H](CC(N)=O)NC(=O)[C@@H](C)NC1=O)C(=O)N[C@@H](CCC(=O)O)C(=O)N[C@@H](CC(=O)O)C(=O)N[C@@H](Cc1ccccc1)C(=O)N[C@@H](Cc1ccc(O)cc1)C(=O)N[C@@H](CC(=O)O)C(=O)N[C@@H](C(C)(C)C)C(=O)N[C@H](C(N)=O)CSC4)[C@]1(C)O[C@H]1[C@H](C)[C@@H]1C[C@@](O)(NC(=O)O1)[C@H](OC)/C=C/C=C(\C)C2 (some centres unmarked) [BT1718] ({X1-βAla}-[Sar][Sar][Sar][Sar][Sar][Sar][Sar][Sar][Sar][Sar]AC[dA]NE[1Nal][dA]CEDFYD[Tle]C-NH2; linker 12-18-25 via TBMB (inferred))
4.5 mpk biw, day 21
  Tumor Volume: 526 ± 95 mm^3
9 mpk qw, day 0
  Body Weight: 24.0 ± 0.4 g
  Body Weight (% Change): 0.0%
  Tumor Volume: 163 ± 19 mm^3
9 mpk qw, day 2
  Body Weight: 23.2 ± 0.6 g
  Body Weight (% Change): −3.4 ± 0.9%
  Tumor Volume: 182 ± 25 mm^3
9 mpk qw, day 4
  Body Weight: 23.8 ± 0.5 g
  Body Weight (% Change): −0.7 ± 1.8%
  Tumor Volume: 200 ± 28 mm^3
9 mpk qw, day 7
  Body Weight: 24.7 ± 0.2 g
  Body Weight (% Change): 2.8 ± 0.6%
  Tumor Volume: 202 ± 64 mm^3
9 mpk qw, day 9
  Body Weight: 23.8 ± 0.5 g
  Body Weight (% Change): −1.1 ± 0.7%
  Tumor Volume: 187 ± 70 mm^3
9 mpk qw, day 11
  Body Weight: 24.7 ± 0.4 g
  Body Weight (% Change): 2.8 ± 0.9%
  Tumor Volume: 164 ± 61 mm^3
9 mpk qw, day 14
  Body Weight: 24.9 ± 0.4 g
  Body Weight (% Change): 3.7 ± 0.8%
  T/C (%): 12%
  TGI (%): 101%
  Tumor Volume: 154 ± 72 mm^3
  Tumor Size (mm^3): 154 ± 72 mm^3
9 mpk qw, day 16
  Body Weight: 24.6 ± 0.2 g
  Body Weight (% Change): 2.3 ± 0.6%
  Tumor Volume: 186 ± 83 mm^3
9 mpk qw, day 18
  Body Weight: 24.8 ± 0.2 g
  Body Weight (% Change): 3.2 ± 0.8%
  Tumor Volume: 245 ± 119 mm^3
9 mpk qw, day 21
  Body Weight: 24.8 ± 0.2 g
  Body Weight (% Change): 3.1 ± 1.0%
  Tumor Volume: 320 ± 153 mm^3
10 mpk tiw, day 0
  Body Weight: 24.2 ± 0.4 g
  Body Weight (% Change): 0.0%
  Tumor Volume: 167 ± 11 mm^3
10 mpk tiw, day 2
  Body Weight: 23.2 ± 0.6 g
  Body Weight (% Change): −4.0 ± 1.3%
  Tumor Volume: 216 ± 21 mm^3
10 mpk tiw, day 4
  Body Weight: 23.7 ± 0.5 g
  Body Weight (% Change): −2.1 ± 0.9%
  Tumor Volume: 205 ± 24 mm^3
10 mpk tiw, day 7
  Body Weight: 22.7 ± 0.6 g
  Body Weight (% Change): −6.2 ± 0.8%
  Tumor Volume: 114 ± 10 mm^3
10 mpk tiw, day 9
  Body Weight: 23.1 ± 0.4 g
  Body Weight (% Change): −4.4 ± 0.3%
  Tumor Volume: 45 ± 4 mm^3
10 mpk tiw, day 11
  Body Weight: 22.9 ± 0.6 g
  Body Weight (% Change): −5.2 ± 1.1%
  Tumor Volume: 16 ± 3 mm^3
10 mpk tiw, day 14
  Body Weight: 23.8 ± 0.5 g
  Body Weight (% Change): −1.6%
  T/C (%): 0%
  TGI (%): 115%
  Tumor Volume: 0 ± 0 mm^3
  Tumor Size (mm^3): 0 ± 0 mm^3
15 mpk biw, day 0
  Body Weight: 23.7 ± 0.3 g
  Body Weight (% Change): 0.0%
  Tumor Volume: 161 ± 12 mm^3
15 mpk biw, day 2
  Body Weight: 22.7 ± 0.4 g
  Body Weight (% Change): −4.2 ± 0.6%
  Tumor Volume: 173 ± 11 mm^3
15 mpk biw, day 4
  Body Weight: 22.6 ± 0.3 g
  Body Weight (% Change): −4.5 ± 0.3%
  Tumor Volume: 136 ± 10 mm^3
15 mpk biw, day 7
  Body Weight: 22.8 ± 0.4 g
  Body Weight (% Change): −3.7 ± 2.5%
  Tumor Volume: 79 ± 1 mm^3
15 mpk biw, day 9
  Body Weight: 22.7 ± 0.2 g
  Body Weight (% Change): −4.3 ± 1.7%
  Tumor Volume: 36 ± 2 mm^3
15 mpk biw, day 11
  Body Weight: 23.4 ± 0.3 g
  Body Weight (% Change): −1.2 ± 0.3%
  Tumor Volume: 12 ± 0 mm^3
15 mpk biw, day 14
  Body Weight: 23.7 ± 0.5 g
  Body Weight (% Change): 0.2 ± 1.4%
  T/C (%): 0%
  TGI (%): 115%
  Tumor Volume: 0 ± 0 mm^3
  Tumor Size (mm^3): 0 ± 0 mm^3
30 mpk qw, day 0
  Body Weight: 24.6 ± 0.6 g
  Body Weight (% Change): 0.0%
  Tumor Volume: 166 ± 10 mm^3
30 mpk qw, day 2
  Body Weight: 20.9 ± 0.3 g
  Body Weight (% Change): −14.9 ± 2.2%
  Tumor Volume: 166 ± 22 mm^3
30 mpk qw, day 4
  Body Weight: 21.9 ± 1.0 g
  Body Weight (% Change): −10.8 ± 4.3%
  Tumor Volume: 128 ± 6 mm^3
30 mpk qw, day 7
  Body Weight: 23.1 ± 1.0 g
  Body Weight (% Change): −6.2 ± 3.5%
  Tumor Volume: 89 ± 4 mm^3
30 mpk qw, day 9
  Body Weight: 20.8 ± 1.0 g
  Body Weight (% Change): −15.5 ± 3.4%
  Tumor Volume: 47 ± 3 mm^3
30 mpk qw, day 11
  Body Weight: 22.1 ± 0.9 g
  Body Weight (% Change): −10.3 ± 3.3%
  Tumor Volume: 18 ± 2 mm^3
30 mpk qw, day 14
  Body Weight: 24.0 ± 1.0 g
  Body Weight (% Change): −2.4 ± 3.2%
  T/C (%): 0%
  TGI (%): 115%
  Tumor Volume: 0 ± 0 mm^3
  Tumor Size (mm^3): 0 ± 0 mm^3
EBC-1, 10 mg/kg
  Best response at 10 mg/kg: CR
EBC-1, dose leading to tumor-stasis
  Minimally Effective Dose IV BIW: <10 mg/kg
Other groups (all except 30 mg/kg qw)
  body weight effect: maintained their bodyweight well
Same total dose, schedules from daily to a single weekly dose
  treatment effect: Effective treatment
